The target in this assay is human plasma-derived FIXa (Haematologic Technologies Inc) (human) (UniProt P00740). Put plainly: cell-based or functional assay.
human plasma-derived FIXa (Haematologic Technologies Inc) (human), sequence (P00740 47-191, chain 1 of 2): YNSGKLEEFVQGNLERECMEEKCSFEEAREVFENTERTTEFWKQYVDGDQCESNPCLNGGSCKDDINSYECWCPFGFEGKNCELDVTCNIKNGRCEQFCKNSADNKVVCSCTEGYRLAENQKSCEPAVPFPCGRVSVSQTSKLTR
human plasma-derived FIXa (Haematologic Technologies Inc) (human), sequence (P00740 227-461, chain 2 of 2): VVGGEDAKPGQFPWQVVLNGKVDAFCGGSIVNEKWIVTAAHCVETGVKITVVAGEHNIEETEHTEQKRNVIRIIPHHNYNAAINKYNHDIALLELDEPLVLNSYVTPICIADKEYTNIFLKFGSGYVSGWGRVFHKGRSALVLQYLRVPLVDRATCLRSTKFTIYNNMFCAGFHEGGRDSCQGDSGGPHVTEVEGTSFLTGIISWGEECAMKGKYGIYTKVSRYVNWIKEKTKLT

For ACE910 (bispecific antibody), the Maximum stimulation (fold), at 15300 nM BiAb stood at 808 fold.

The record behind these values is US20250011468A1.
